Measurements as given in US20240344138A1, “TARGETED THERAPIES IN CANCER” (Feng Biosciences, Inc, priority 2021, published 2024).

Assays:
Assay type in all cases: in vivo, human
[1] = tested on: locally advanced or metastatic gastric cancer; assay: First-line clinical trial of chemotherapy, immune checkpoint inhibitor and bavituximab, outcome by TME phenotype
Protocol: (§1) A clinical trial is run to determine whether locally advanced or metastatic gastric cancer tumor microenvironment phenotypes correlate to clinical responses when patients are treated with chemotherapy, an immune checkpoint inhibitor, and Bavituximab in the first-line setting. The analysis includes samples from 120 patients across 2 treatment arms (60 patients in each arm). Patients are randomized to receive either (i) chemotherapy and an immune checkpoint inhibitor, or (ii) chemotherapy, an immune checkpoint inhibitor, and bavituximab. RNA gene signatures are analyzed from tumor samples acquired before any treatments and TME phenotypes are determined. Patients are followed for clinical response, progression-free survival, and overall survival.
Gastric cancer patients are randomized to receiving a regimen of chemotherapy (i.e. capecitabine, 5-FU, cisplatin etc.) plus an immune checkpoint inhibitor (anti-PD-(L)1—i.e., an inhibitor to PD-1 or PD-L1) therapy, or a regimen of chemotherapy/immune checkpoint inhibitor/Bavituximab. The combination of chemotherapy/immune checkpoint inhibitor/Bavituximab increases overall response rate (ORR), 6 month progression-free survival (PFS) and overall survival (OS) patients with advanced gastric cancer compared to the regimen of chemotherapy/immune checkpoint inhibitor alone as shown in TABLE 23. […] One hundred and twenty (120) patients are enrolled, 60 in each of the treatment groups with equal representation across the 4 stromal phenotypes (15 in each phenotype per treatment group). The correlation between each TME phenotype is tested against clinical outcome data. In immune active (IA) and immune suppressed (IS) patients the use of the regimen of chemotherapy/immune checkpoint inhibitor/Bavituximab confers benefit in comparison to patients classified to angiogenic (A) and immune desert (ID) TME phenotype classes as shown in the TABLE 24.

[2] = tested on: locally advanced or metastatic gastric cancer; assay: First-line clinical trial of chemotherapy, immune checkpoint inhibitor and navicixizumab, outcome by TME phenotype
Protocol: as §1, with “inhibitor, and Navicixizumab in the” for “inhibitor, and Bavituximab in the”, “immune checkpoint inhibitor or (ii)” for “immune checkpoint inhibitor, or (ii)”, “immune checkpoint inhibitor and Navicixizumab.” for “immune checkpoint inhibitor, and bavituximab.”, “inhibitor and Navicixizumab. RNA gene” for “inhibitor, and bavituximab. RNA gene”
Gastric cancer patients are randomized to receiving a regimen of chemotherapy (e.g., capecitabine, 5-FU, cisplatin etc.) plus an immune checkpoint inhibitor (anti-PD-(L)1—e.g., an inhibitor to PD-1 or PD-L1) therapy, or a regimen of chemotherapy/immune checkpoint inhibitor/Navicixizumab. […] The correlation between each TME phenotype is tested against clinical outcome data. In immune active (IA), immune suppressed (IS) and angiogenic (A) patients the use of the regimen of chemotherapy/immune checkpoint inhibitor/Navicixizumab confers benefit in comparison to patients classified to the immune desert (ID) TME phenotype class as shown in the TABLE 26.

[3] = tested on: locally advanced/metastatic HER2-negative breast cancer; assay: Second-line clinical trial of navicixizumab/chemotherapy or navicixizumab/PARP inhibitor, outcome by TME phenotype; conditions: plus chemotherapy group
Protocol: A clinical trial is run to determine whether locally advanced/metastatic HER2-negative breast cancer tumor microenvironment phenotypes correlate to clinical responses when patients are treated with a combination of Navicixizumab/chemotherapy or Navicixizumab/PARP inhibitor in the second-line setting. […] Patients receive either Navicixizumab/chemotherapy (BRCA WT and hormone receptor-positive) or Navicixizumab/PARP inhibitor (BRCA mutant or triple-negative for ER/PR/HER2). RNA gene signatures are analyzed from tumor samples acquired before any treatments and TME phenotypes are determined. Patients are followed for clinical response and progression-free survival. […] BRCA WT/hormone receptor-positive/HER2-negative breast cancer patients receive a regimen of Navicixizumab plus chemotherapy (e.g., capecitabine, etc.). BRCA mutant or triple-negative for ER/PR/HER2 breast cancer patients receive a regimen of Navicixizumab plus a PARP inhibitor (e.g., Rucaparib, Olaparib, etc.). […] The correlation between each TME phenotype is tested against clinical outcome data. In biomarker positive tumors, represented by angiogenic (A) and immune suppressed (IS) phenotypes, the use of Navicixizumab combinations confers benefit in comparison to patients classified as biomarker negative, represented by immune active (IA) and immune desert (ID) TME phenotype classes as shown in the TABLE 27 and TABLE 28.

[4] = tested on: castration-resistant metastatic prostate cancer; assay: Third-line clinical trial of navicixizumab/chemotherapy or navicixizumab/PARP inhibitor, outcome by TME phenotype; conditions: plus chemotherapy group
Protocol: A clinical trial is run to determine whether castration-resistant metastatic prostate cancer tumor microenvironment phenotypes correlate to clinical responses when patients are treated with a combination of Navicixizumab/chemotherapy or Navicixizumab/PARP inhibitor in the third-line setting. […] Patients receive either Navicixizumab/chemotherapy (BRCA WT) or Navicixizumab/PARP inhibitor (BRCA mutant). RNA gene signatures are analyzed from tumor samples acquired before any treatments and TME phenotypes are determined. Patients are followed for clinical response, progression-free survival and overall survival. […] BRCA WT prostate cancer patients receive a regimen of Navicixizumab plus chemotherapy (e.g., docetaxel, cabazitaxel etc.). BRCA mutant prostate cancer patients receive a regimen of Navicixizumab plus a PARP inhibitor (e.g., Rucaparib, Olaparib, etc.). […] The correlation between each TME phenotype is tested against clinical outcome data. In tumors that are biomarker positive, represented by angiogenic (A) and immune suppressed (IS) phenotypes, the use of Navicixizumab combinations confers benefit in comparison to patients classified as biomarker negative, represented by immune active (IA) and immune desert (ID) TME phenotype classes as shown in the TABLE 29 and TABLE 30.

B1: Chemo/Immune Checkpoint Inhibitor/Bavituximab: regimen of chemotherapy, immune checkpoint inhibitor and bavituximab (antibody, chains of the INN, looked up, V domains shown)
VH: EVQLQQSGPELEKPGASVKLSCKASGYSFTGYNMNWVKQSHGKSLEWIGHIDPYYGDTSYNQKFRGKATLTVDKSSSTAYMQLKSLTSEDSAVYYCVKGGYYGHWYFDVWGAGTTVTVSS
VL: DIQMTQSPSSLSASLGERVSLTCRASQDIGSSLNWLQQGPDGTIKRLIYATSSLDSGVPKRFSGSRSGSDYSLTISSLESEDFVDYYCLQYVSSPPTFGAGTKLELK
modifications: with chemotherapy and checkpoint inhibitor
6 Month PFS (%) ([1]; A (n = 15)): 46.7% | ORR (%) ([1]; A (n = 15)): 46.7% | OS (months) ([1]; A (n = 15)): 8.2 months | 6 Month PFS (%) ([1]; IA (n = 15)): 80.0% | ORR (%) ([1]; IA (n = 15)): 73.3% | OS (months) ([1]; IA (n = 15)): 20.2 months | 6 Month PFS (%) ([1]; ID (n = 15)): 60.0% | ORR (%) ([1]; ID (n = 15)): 53.3% | OS (months) ([1]; ID (n = 15)): 11.8 months | 6 Month PFS (%) ([1]; IS (n = 15)): 73.3% | ORR (%) ([1]; IS (n = 15)): 66.7% | OS (months) ([1]; IS (n = 15)): 19.8 months | 6 Month PFS (%) ([1]; whole treatment group (n = 60)): 65% | ORR (%) ([1]; whole treatment group (n = 60)): 60% | OS (months) ([1]; whole treatment group (n = 60)): 15 months

B2: Chemo/Immune Checkpoint Inhibitor/Navicixizumab: regimen of chemotherapy, immune checkpoint inhibitor and navicixizumab (antibody, chains of the INN, looked up, V domains shown)
VH: QVQLVQSGAEVKKPGASVKISCKASGYSFTAYYIHWVKQAPGQGLEWIGYISNYNRATNYNQKFKGRVTFTTDTSTSTAYMELRSLRSDDTAVYYCARDYDYDVGMDYWGQGTLVTVSS
VL: DIVMTQSPDSLAVSLGERATISCRASESVDNYGISFMKWFQQKPGQPPKLLIYAASNQGSGVPDRFSGSGSGTDFTLTISSLQAEDVAVYYCQQSKEVPWTFGGGTKVEIK
VH2: QVQLVQSGAEVKKPGASVKVSCKASGYTFTNYWMHWVRQAPGQGLEWMGDINPSNGRTSYKEKFKRRVTLSVDKSSSTAYMELSSLRSEDTAVYFCTIHYDDKYYPLMDYWGQGTLVTVSS
VL2: DIVMTQSPDSLAVSLGERATISCRASESVDNYGISFMKWFQQKPGQPPKLLIYAASNQGSGVPDRFSGSGSGTDFTLTISSLQAEDVAVYYCQQSKEVPWTFGGGTKVEIK
modifications: with chemotherapy and checkpoint inhibitor
6 Month PFS (%) ([2]; A (n = 15)): 66.7% | ORR (%) ([2]; A (n = 15)): 60.0% | OS (months) ([2]; A (n = 15)): 15.4 months | 6 Month PFS (%) ([2]; IA (n = 15)): 73.3% | ORR (%) ([2]; IA (n = 15)): 66.7% | OS (months) ([2]; IA (n = 15)): 17.4 months | 6 Month PFS (%) ([2]; ID (n = 15)): 53.3% | ORR (%) ([2]; ID (n = 15)): 46.7% | OS (months) ([2]; ID (n = 15)): 11.5 months | 6 Month PFS (%) ([2]; IS (n = 15)): 73.3% | ORR (%) ([2]; IS (n = 15)): 73.3% | OS (months) ([2]; IS (n = 15)): 19.7 months | 6 Month PFS (%) ([2]; whole treatment group (n = 60)): 67% | ORR (%) ([2]; whole treatment group (n = 60)): 63% | OS (months) ([2]; whole treatment group (n = 60)): 16 months

B3: Navicixizumab plus chemotherapy: navicixizumab plus chemotherapy (e.g., capecitabine in breast; docetaxel, cabazitaxel in prostate) (antibody, chains of the INN, looked up, V domains shown)
VH: QVQLVQSGAEVKKPGASVKISCKASGYSFTAYYIHWVKQAPGQGLEWIGYISNYNRATNYNQKFKGRVTFTTDTSTSTAYMELRSLRSDDTAVYYCARDYDYDVGMDYWGQGTLVTVSS
VL: DIVMTQSPDSLAVSLGERATISCRASESVDNYGISFMKWFQQKPGQPPKLLIYAASNQGSGVPDRFSGSGSGTDFTLTISSLQAEDVAVYYCQQSKEVPWTFGGGTKVEIK
VH2: QVQLVQSGAEVKKPGASVKVSCKASGYTFTNYWMHWVRQAPGQGLEWMGDINPSNGRTSYKEKFKRRVTLSVDKSSSTAYMELSSLRSEDTAVYFCTIHYDDKYYPLMDYWGQGTLVTVSS
VL2: DIVMTQSPDSLAVSLGERATISCRASESVDNYGISFMKWFQQKPGQPPKLLIYAASNQGSGVPDRFSGSGSGTDFTLTISSLQAEDVAVYYCQQSKEVPWTFGGGTKVEIK
modifications: plus chemotherapy
ORR (%) ([3]; A (n = 15)): 60% | PFS (months) ([3]; A (n = 15)): 11.5 months | ORR (%) ([3]; Biomarker Negative (n = 30)): 20% | PFS (months) ([3]; Biomarker Negative (n = 30)): 5.7 months | ORR (%) ([3]; Biomarker Positive (n = 30), BRCA WT, hormone receptor-positive): 63.4% | PFS (months) ([3]; Biomarker Positive (n = 30)): 12.3 months | ORR (%) ([3]; IA (n = 15)): 26.7% | PFS (months) ([3]; IA (n = 15)): 6.0 months | ORR (%) ([3]; ID (n = 15)): 13.3% | PFS (months) ([3]; ID (n = 15)): 5.4 months | ORR (%) ([3]; IS (n = 15)): 66.7% | PFS (months) ([3]; IS (n = 15)): 13.1 months | ORR (%) ([4]; A (n = 10)): 54% | OS (months) ([4]; A (n = 10)): 19.0 months | PFS (months) ([4]; A (n = 10)): 13.5 months | ORR (%) ([4]; Biomarker Negative (n = 20)): 34% | OS (months) ([4]; Biomarker Negative (n = 20)): 11.9 months | PFS (months) ([4]; Biomarker Negative (n = 20)): 9.8 months | ORR (%) ([4]; Biomarker Positive (n = 20), BRCA WT): 56% | OS (months) ([4]; Biomarker Positive (n = 20)): 20.1 months | PFS (months) ([4]; Biomarker Positive (n = 20)): 14.2 months | ORR (%) ([4]; IA (n = 10)): 37% | OS (months) ([4]; IA (n = 10)): 12.0 months | PFS (months) ([4]; IA (n = 10)): 10.9 months | ORR (%) ([4]; ID (n = 10)): 31% | OS (months) ([4]; ID (n = 10)): 11.8 months | PFS (months) ([4]; ID (n = 10)): 8.7 months | ORR (%) ([4]; IS (n = 10)): 58% | OS (months) ([4]; IS (n = 10)): 21.2 months | PFS (months) ([4]; IS (n = 10)): 14.7 months
